Test results published in article PMC9092267.

Target: CK2α with para-azidophenylalanine at Tyr239 coupled with DBCO-Sulfo-Cy5 (Homo sapiens) (UniProt P68400)
Experiment: MST; 0.1526 to 5,000 nM GST cleaved CK2β titrated to 30 nM Cy5-labelled CK2α; 50 mM Tris-HCl (pH 8), 500 mM NaCl, 500 μM CaCl2, 0.05% Tween 20, 0.5% (v/v) DMSO; 25 °C; Monolith NT.115

| Kd | Substance |
| --- | --- |
| 12.9 nM | casein kinase II subunit beta (CK2β), wild type, GST cleaved (from UniProt P67870 1-215) (natural protein) |
| 15.8 nM | casein kinase II subunit beta (CK2β) NP_001311.3; p.Asp32His, GST cleaved (from UniProt P67870 1-215) (natural protein) |
